Experimental data reported in publication PMC7756681, “Functional Hybrid Molecules for the Visualization of Cancer: PESIN‐Homodimers Combined with Multimodal Molecular Imaging Probes for Positron Emission Tomography and Optical Imaging: Suited for Tracking of GRPR‐Positive Malignant Tissue” (Chemistry (Weinheim an Der Bergstrasse, Germany), 2020).
Like-named read-outs stand apart in the source and are kept apart here.

How the values were obtained:
[1] = Photophysical properties (absorption and emission spectra in PBS); assay type: physicochemical
From the text: After studying the chemical and biological properties of the MIUs and their corresponding multimodal imaging agents, the photophysical properties of the substances were finally under investigation. Here, we found no significant decrease or shift of the optical and fluorescent characteristics of the bioconjugates compared to the MIUs (Table 2).
Fig. S27 Normalized absorption and emission spectra of 7 (left) and 7a (right), recorded in PBS
at a concentration of c = 1.0 x 10-5 mol/L, emission wavelength stated in the graph (bottom, left
Fig. S28 Normalized absorption and emission spectra of 8 (left) and 8a (right), recorded in PBS
Fig. S29 Normalized absorption and emission spectra of 9 (left) and 9a (right), recorded in PBS […]
Fig. S30 Normalized absorption and emission spectra of 10 (left) and 10a (right), recorded in
PBS at a concentration of c = 1.0 x 10-5 mol/L, emission wavelength stated in the graph (bottom,
Fig. S31 Normalized absorption and emission spectra of 11 (left) and 11a (right), recorded in
Fig. S32 Normalized absorption and emission spectra of 12 (left) and 12a (right), recorded in […]

[2] = LogD determination of 68Ga-labeled MIUs and bioconjugates (water/1-octanol partition, γ-counter); conditions: pH 7.4
Method: Following the synthesis of the MIUs 6 a–13 a and the corresponding bioconjugates 6–13, the radiolabeling efficiency of the compounds with ^68Ga^3+ was investigated. […] In the following, we investigated the lipophilicity of the MIUs [^68Ga]6 a–[^68Ga]13 a and their bioconjugates [^68Ga]6–[^68Ga]13 (Table 1 and Figure 2 C,D).
(§1) A solution of the respective multimodal imaging unit (MIU) 6a – 13a (5 nmol) or multimodal imaging agent 6 - 14 (5 nmol) in H2O (Tracepur quality, 1mM) was added to 90 - 120 MBq of [68Ga]GaCl in a solution obtained by fractioned elution of an IGG 68Ge/68Ga generator system […]
(§2) with HCl (0.1 M, 1.6 mL) and subsequent titration to pH 3.5 – 4.2 by addition of sodium acetate solution (1.25 M, 50 – 75 µL). All labeling experiments were performed by addition of 2 mg ascorbic acid to suppress radiolysis-induced product fragmentation. In the labeling experiments of the MIUs 6a – 13a, 1 - 4 mg TCEP x HCl were added and the pH was adjusted to 3.5 – 4.2 by addition of sodium acetate solution (1.25 M). After reaction for 10 min at 45°C, the reaction mixtures were analyzed by analytical radio-HPLC.
(§3) For 68Ga-6/6a – 68Ga-13/13a, the water/1-octanol partition coefficient (log ) was determined by […]
(§4) adding 5 µL of the respectively 68Ga-labeled compound (0.8 – 1.2 MBq) to a mixture of phosphate buffer (0.05 M, pH 7.4, 795 µL) and 1-octanol (800 µL). The mixtures were intensively shaken for 5 minutes on a vibrating plate. After subsequent centrifugation at 13 000 rpm for 5 min, 125 µL were taken from each phase and measured in a γ-counter. The logD values were calculated from three or four independent experiments, each performed in triplicate.
For 14, the water/1-octanol partition coefficient (logD) was determined by semipreparative HPLC.
For this purpose, 10 µL solution (c = 5 x 10-4 mol/L) of the substance were added to a mixture of 1 mL 1-octanol and 990 µL phosphate buffered solution (0.05 M, pH 7.4) and the mixture was vigorously shaken for 5 minutes. After centrifugation, the phases were separated and both phases were analyzed by semipreparative HPLC. The logD was determined by three separate measurements, each experiment performed in triplicate.
(§5) Competitive receptor binding assay
(§6) Stably GRPR-transfected Human Embryonic Kidney 293 cells (HEK-GRPR) were cultured at 37°C in Dulbecco’s Modified Eagle’s Medium (DMEM, high glucose, GlutaMax-I, 500 mL) […]
(§7) a humidified atmosphere containing 5 % CO2. The medium was exchanged every two or three days and cells were split at >75 % confluence. In vitro binding affinities were determined via competitive displacement experiments which were performed at least trice, each experiment performed in triplicate. A Millipore Multiscreen punch kit and Millipore 96 well filter plates (pore size 1.2 µm) were used. The plates were incubated with PBS/BSA (1%) solution (each well 200 µL) for one hour before use. HEK-GRPR cells were harvested and suspended carefully in Opti- […]

PC-3 cells = experiment: Confocal fluorescence microscopy on GRPR-positive PC-3 cells; assay type: cell-based, human; conditions: 10 μM, 4 h incubation
Method: Figure 4 Confocal fluorescence microscopy images for pyridinium-based bioconjugate […]). […] (B) NIR detector window (660-720 nm, 6). (C) Transmitted light. […] After one hour of incubation at ambient temperature, the solution was filtrated and the filters were washed with cold PBS (3 times). The filters were collected and measured by γ-counting. […] were calculated by fitting the obtained data via a nonlinear regression analysis using GraphPad Prism Software (v5.04). […] PC-3 cells were cultured at 37°C in RPMI 1640 medium supplemented with 10% FCS, 1% L-Glutamine and 1% PenStrep in a humidified atmosphere containing 5% CO2. […] Fluorescence microscopy was performed on a Leica TCS SP8 confocal microscope with laser excitation wavelengths of 405 and 638 nm. Overlays of microscopies were generated directly with the operating software or afterwards using FIJI software (v1.50e). PC-3 cells (4 x 104) were seeded two days prior to the measurements in six-well culture plates, each well was equipped with cover slips for microscopy. Medium was exchanged after 24h. After 2 days, the medium was removed and the cells were washed carefully with PBS. Then, 1 mL of a 10 μM solution of 6 in antibiotic-free medium was added, followed by incubation for 4h. […]

[3] = biological target: T1, gastrin-releasing peptide receptor (GRPR) (Homo sapiens, UniProt P30550); experiment: Competitive displacement assay on stably GRPR-transfected HEK cells using [125I]-Tyr4-bombesin; assay type: binding; conditions: [125I]-Tyr4-bombesin as competitor, 1 h, ambient temperature, read-out: IC50 (GRPR affinity)
T1 construct: host or cells: Human Embryonic Kidney 293 cells (HEK-GRPR)
Method: as §5, §6
as §7, with “Opti-MEM I (GlutaMAX I) medium. 50 µL of a cell suspension containing […] were seeded in each well. To this, a total volume of 50 µL was added to each well, containing 25 µL (0.012” for “Opti-”
The competitor was added in 11 increasing concentrations ranging from 0.25 – 500 nM for 6 – […]
binding of the radioligand. After one hour of incubation at ambient temperature, the solution was filtrated and the filters were washed with cold PBS (3 times). The filters were collected and […]

[4] = assay type: physicochemical; conditions: pH 7.4
Method: as §1, §2, §3
as §4, with “The mixtures were intensively shaken for 5 minutes on a vibrating plate.” left out
For 14, the water/1-octanol partition coefficient (logD) was determined by semipreparative HPLC. […]

T1 sequence (P30550 whole entry, species assumed): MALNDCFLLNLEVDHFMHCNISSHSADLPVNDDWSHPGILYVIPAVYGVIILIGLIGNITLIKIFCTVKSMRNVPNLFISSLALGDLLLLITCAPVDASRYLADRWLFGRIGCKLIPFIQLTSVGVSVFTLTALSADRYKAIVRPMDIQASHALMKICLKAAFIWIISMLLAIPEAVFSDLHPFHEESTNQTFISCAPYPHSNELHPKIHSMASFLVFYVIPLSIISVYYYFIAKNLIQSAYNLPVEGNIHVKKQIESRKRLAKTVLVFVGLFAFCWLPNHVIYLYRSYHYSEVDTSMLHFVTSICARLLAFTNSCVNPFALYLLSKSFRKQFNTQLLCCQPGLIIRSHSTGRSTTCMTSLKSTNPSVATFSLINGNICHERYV

In the case of `CSCC[C@H](NC(=O)[C@H](CC(C)C)NC(=O)[C@H](Cc1c[nH]cn1)NC(=O)CNC(=O)[C@@H](NC(=O)[C@H](C)NC(=O)[C@H](Cc1c[nH]c2ccccc12)NC(=O)[C@H](CCC(N)=O)NC(=O)CCOCCOCCOCCOCCNC(=O)CON=Cc1ccc(C(=O)NCCCN(CCCNC(=O)c2ccc(C=NOCC(=O)NCCOCCOCCOCCOCCC(=O)N[C@@H](CCC(N)=O)C(=O)N[C@@H](Cc3c[nH]c4ccccc34)C(=O)N[C@@H](C)C(=O)N[C@H](C(=O)NCC(=O)N[C@@H](Cc3c[nH]cn3)C(=O)N[C@@H](CC(C)C)C(=O)N[C@@H](CCSC)C(N)=O)C(C)C)cc2)CC(=O)N[C@H](CSC2CC(=O)N(CCN3C(=O)CC(SC[C@H](NC(=O)[C@H](CCCC[n+]4c(C)cc(/C=C/c5cc6c7c(c5)CCCN7CCC6)cc4C)NC(=O)CC[C@H](C(=O)O)N4CCN(CC(=O)O)CCN(CC(=O)O)CC4)C(N)=O)C3=O)C2=O)C(=O)NCCOCCOCC(N)=O)cc1)C(C)C)C(N)=O` (some centres unmarked) [Compound 6], the “Log ϵ” value ([1]; 1×10^−5 mol L^−1) is reported as 4.08 M ^−1 cm^−1, the λ max ([1]; 1×10^−5 mol L^−1) is reported as 510 nm and the λem ([1]; 1×10^−5 mol L^−1, excitation wavelength λex=400 nm) is reported as 630 nm. For the same compound, the logD [2] was -1.71 ± 0.05, the “cellular localization of the agent” value (PC-3 cells) was “cytoplasmic localization” and the IC50 [3] was 19 ± 1.13 nM.

In the case of `CSCC[C@H](NC(=O)[C@H](CC(C)C)NC(=O)[C@H](Cc1c[nH]cn1)NC(=O)CNC(=O)[C@@H](NC(=O)[C@H](C)NC(=O)[C@H](Cc1c[nH]c2ccccc12)NC(=O)[C@H](CCC(N)=O)NC(=O)CCOCCOCCOCCOCCNC(=O)CON=Cc1ccc(C(=O)NCCCN(CCCNC(=O)c2ccc(C=NOCC(=O)NCCOCCOCCOCCOCCC(=O)N[C@@H](CCC(N)=O)C(=O)N[C@@H](Cc3c[nH]c4ccccc34)C(=O)N[C@@H](C)C(=O)N[C@H](C(=O)NCC(=O)N[C@@H](Cc3c[nH]cn3)C(=O)N[C@@H](CC(C)C)C(=O)N[C@@H](CCSC)C(N)=O)C(C)C)cc2)CC(=O)N[C@H](CSC2CC(=O)N(CCN3C(=O)CC(SC(C)(C)C)C3=O)C2=O)C(=O)NCCOCCOCC(N)=O)cc1)C(C)C)C(N)=O` (some centres unmarked) [Compound 14], the logD [4] is reported as -0.88 ± 0.04 and the IC50 [3] is reported as 18.7 ± 1.37 nM.
